Here are results for 4 molecules from paper PMC4780118, “Mechanisms involved in xyloglucan catabolism by the cellulosome-producing bacterium Ruminiclostridium cellulolyticum” (Scientific Reports, 2016).

In one data set the target is T1, SBP2458 (Ruminiclostridium cellulolyticum, UniProt B8I622).
T1 construct: gene Ccel_2458
As to the kind of experiment: isothermal titration calorimetry. The class given is binding. As to conditions: 150 mM NaCl, 25 mM HEPES pH 7.0, 20 °C; single-site model.

Substrate in data set [1]: O=[N+]([O-])c1ccc(O[C@@H]2O[C@H](CO)[C@H](O)[C@H](O)[C@H]2O)cc1
Briefly: purified protein. As to conditions: assay as in ref. 19.

Substrate in data set [2]: O=[N+]([O-])c1ccc(O[C@@H]2O[C@H](CO)[C@@H](O)[C@H](O)[C@H]2O)cc1
As to the kind of experiment: purified protein. As to conditions: assay as in ref. 19.

Substrate in the data set “pNP release kinetics”: O=[N+]([O-])c1ccc(O[C@H]2OC[C@@H](O)[C@H](O)[C@H]2O)cc1
As to the kind of experiment: pNP release kinetics. The settings on record: assay as in ref. 19. The data set is classed as biochemical, Ruminiclostridium cellulolyticum.

T1 sequence (B8I622 entry or part of it): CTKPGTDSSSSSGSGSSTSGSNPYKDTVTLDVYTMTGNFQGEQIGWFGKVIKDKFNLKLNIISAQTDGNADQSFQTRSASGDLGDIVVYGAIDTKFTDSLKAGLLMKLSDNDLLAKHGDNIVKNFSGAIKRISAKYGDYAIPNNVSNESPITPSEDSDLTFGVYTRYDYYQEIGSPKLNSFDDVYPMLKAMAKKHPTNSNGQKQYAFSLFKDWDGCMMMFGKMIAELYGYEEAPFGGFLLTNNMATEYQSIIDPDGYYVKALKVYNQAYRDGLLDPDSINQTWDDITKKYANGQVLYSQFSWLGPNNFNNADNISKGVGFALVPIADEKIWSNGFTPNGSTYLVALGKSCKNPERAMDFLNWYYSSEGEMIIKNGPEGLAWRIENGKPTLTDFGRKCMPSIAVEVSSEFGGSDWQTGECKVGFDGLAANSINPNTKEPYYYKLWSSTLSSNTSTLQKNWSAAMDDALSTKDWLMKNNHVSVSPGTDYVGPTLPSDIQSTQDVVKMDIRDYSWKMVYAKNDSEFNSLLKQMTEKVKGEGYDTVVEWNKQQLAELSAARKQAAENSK

With `OC[C@H]1OC(O)[C@H](O)[C@@H](O)[C@@H]1O[C@@H]1O[C@H](CO[C@H]2OC[C@@H](O)[C@H](O)[C@H]2O)[C@@H](O[C@@H]2O[C@H](CO[C@H]3OC[C@@H](O)[C@H](O)[C@H]3O)[C@@H](O[C@@H]3O[C@H](CO[C@H]4OC[C@@H](O)[C@H](O)[C@H]4O)[C@@H](O)[C@H](O)[C@H]3O)[C@H](O)[C@H]2O)[C@H](O)[C@H]1O` (stereo partly shown) [XXXG], the Kd at SBP2458 is 3.65 ± 1.1 nM.

B1: Gal42A (Ruminiclostridium cellulolyticum H10) (protein)
chain: MDKYMPIGMNFPHILHGGDYNPDQWLKAPKILDEDFRLMKLAHCNVMTIGIFSWMALEPEEGKFDFSWLDEIMDKLSKNEMTAILATPSGAKPSWMSQKYPEILRTQADRLKDFHGGRHNHCLTSPIYRKKVSQINRLLAERYARHPALILWHISNEYSGECHCPLCQEAFRSFLMKKYEGDLERLNHEWWTGFWAHRYTDWSQIESPSPRGEHETHGLILDWKRFVSHQTIDFLKNEIKPLRELTPEISVTTNLMGTFPGLEYRELSKEIDVVSWDNYPTWHTSEQPDWKIGIRTSFVHDINRSLKQGKPFMMMESTPSTVNWQKVNKLKRPGMHMLSSLQAVAHGSDTVQYFQWRKSRGSFEKFHGAVVDHVGHENTRVFREVAQVGQVLEKLDEVVGTTVHPKVAIIFDWENRWAMEEAQALARDRIKYEETCVAHYTAFWKRGVSVDIIGARDNLSQYKLVIAPMLYLTHPGVGERIETFVNEGGTFVATYWSGIVNENDLCHLGGFPGPLRAVTGIWSEEIDTMHPDENNSLILSDNSLGLSGTYRVQDFCDLVHAESAEVLARYGEEFYAGRPALTVNRFGKGNAYYMAARTGEDFLEDFYNALMKKLTLSRTLDVELPCGVTSQLRTDGQNRYIFLMNFNHEKQDIQLTKGLTDMFTGEIRQGMLELAPFDVKVLKAKI
As for B1, in the data set “purified protein [1]”, the Michaelis constant (Km) stood at 1560 ± 300 µM, the kcat is given as 4,800 ± 320 μmol product per μmol enzyme × min^−1 and the catalytic efficiency (kcat/Km) came out at 51300 M⁻¹ s⁻¹.

B2: Glu3A (Ruminiclostridium cellulolyticum H10) (protein)
chain: MQYDQIDKKIDELLSMMTLEEKAGMCHGAGLFRTAGVPRLGIPPLVFSDGPMGIRNEFADDNWNTVGGNTDFVTYLPANTALAATFNRTLAESLGEVLGCEARGRGKDVILAPGVNIIRTPLCGRNYEYFSEDPILTAELAASFIKGVQRFDVAACVKHFAANNQETERLAVSAEVDELTLRELYFPAFEASVRAGVLTVMTAYNRLNGTFCSHSRQLITEILREEWGFNGVVVSDWGAVHDTESPAIAGLDIEMNVTSNFNEYFFAKPLINAIKDGKIPERMLDDKVRRILRLMFRLNMFSKDRKRGGFNLPQHQQAVLDAAKESFVLLKNDREVLPLNADGIKTVAVIGSNADKKHSSGGDSAAVKALYEVTPLSGIVMRLASGAKVTYYPGCPDETHYKEEFHIPSNADEKTRADIEEKARAADEDYRKIQMRLEDEAIQAAKTADAVIFIGGNGHEQESEGRDRPDMALPYEQDKLLSRVLDANPNTVVVIISGSPVNMSGWIDKAPTVMQGFFSGMHGGTALAAVLFGDENPSGHLPFTIPLKEEETGASALGEYPGGETVCYSEGLFVGYRYHDAFNIPPLFPFGYGLSYTTFSLANESFRRLPCVGTEYEIHVDITNSGNRPGAQSVQLYVEPEKKDGSPIRTLKGFEKTYLNPDETKTITFKLDERTFSEFRPHEGWVFVPGNYTIHIGTSSRELPIAIALAL
For B2, in the data set “purified protein [2]”, the Michaelis constant (Km) was found to be 44600 ± 19000 µM, the kcat is recorded as 1,350 ± 164 μmol product per μmol enzyme × min^−1 and the catalytic efficiency (kcat/Km) worked out at 500 M⁻¹ s⁻¹.

B3: Xyl31A (Ruminiclostridium cellulolyticum H10) (protein)
chain: MKFLNGYWMSKEGYSLYYPSEAYRIEKSGDVLRIFAPCNQINHRGDTLGGPALTIELSSPAEDVIRISVYHYKGVKKAGPYFELNTPGISPSISEDEDAVWFGSGQIKARIDKKTYNIDYYRGDERLTGSGWRHLAYIKHESGQTYMREQLDLDVGECVYGLGERFTPFVKNGQTVDIWNQDGGTCTEQSYKNIPFYITNRGYGVFVNDPGLVSFEICSEVVSRSQFSVEGESLDYFIIGGSDCKEVISNYTALTGRPAIPPAWSFGLWLSTSFTTNYDEKTVTSFINGMSKRRIPLSVFHFDCFWMKEFNWCDFIWDKDVFPDPKKMLSKLKEKGLHICVWINSYVSQESVLFDEGMQKGYFIHKKNGSVWQWDMWQPGMAIVDFTNPDACNWFSQKLLNLVDMGVDCFKTDFGERIPTEDVVYYDGSDPVKMHNFYTYLYNRTVFDTLKQVGKEAVVFARSATAGSQKFPVHWGGDCTADFSSMAESLRGGLSLGLCGFGFWSHDIGGFEQTATADVYKRWLAFGMLSSHSRLHGSTGYRVPWLYDEEAVDVLRFFANLKCRLMPYIYKTAIQASQQGLPSARAMFVEFPEDPACTTLDRQYMLGDSLLVAPVFSKSGLVEYYLPLGEWYNLLTGEIVTGGSYRKEKHNYMSLPLFVRPGSLLAIGDNEEETVYEYAQGVRLLLTPLADGYEASTSVYEKDGHEALNVTVNRKESDITVIAEGDGKPWSIKLCGITAKGCTGGTIEKEQDGIVFMPGNSTGSYTVRIL
notes: C-terminal His6 (pET28a); E. coli BL21(DE3)
For B3, in “pNP release kinetics”, the Km was 1290 ± 150 µM, the kcat was 12 ± 1.2 μmol product per μmol enzyme × min^−1 and the catalytic efficiency (kcat/Km) is 155 M⁻¹ s⁻¹.

The term Kd denotes the free concentration of one partner at which half of the binding sites on the other are occupied at equilibrium, for simple one-to-one binding. Higher therefore signals a looser complex. By Km is commonly meant the substrate concentration at which the rate is half of its maximum. Usually kcat/Km stands for the second-order rate constant that governs catalysis at low substrate concentration.
